Measurements: patent US20220306695A1, “COMPSTATIN ANALOGUES AND THEIR MEDICAL USES” (priority 2019, published 2022)
Starred links: 1 amine or outer side, 2 acyl side, 3 side chain; linkers in the order of their positions; H or OH if unused. Positions of bridges follow the written chain, without caps; N, C: chain ends. Non-standard residues stand in square brackets, D forms with d. Groups on a side chain read outwards from the residue. *: point of attachment. Trp(1-Me) = Cn1cc(C[C@H](N)C(=O)O)c2ccccc21; C18 diacid = O=C(O)CCCCCCCCCCCCCCCCC(=O)*; γGlu = O=C(O)[C@H](CCC(=O)[*:2])N[*:1]; hCys = N[C@@H](CCS)C(=O)O; AEEA = NCCOCCOCC(=O)O; Sar = CNCC(=O)O

target: Human C3 (human, UniProt P01024 23-1663); assay: cell-based or functional assay
Sequence (P01024 23-1663 limits assumed): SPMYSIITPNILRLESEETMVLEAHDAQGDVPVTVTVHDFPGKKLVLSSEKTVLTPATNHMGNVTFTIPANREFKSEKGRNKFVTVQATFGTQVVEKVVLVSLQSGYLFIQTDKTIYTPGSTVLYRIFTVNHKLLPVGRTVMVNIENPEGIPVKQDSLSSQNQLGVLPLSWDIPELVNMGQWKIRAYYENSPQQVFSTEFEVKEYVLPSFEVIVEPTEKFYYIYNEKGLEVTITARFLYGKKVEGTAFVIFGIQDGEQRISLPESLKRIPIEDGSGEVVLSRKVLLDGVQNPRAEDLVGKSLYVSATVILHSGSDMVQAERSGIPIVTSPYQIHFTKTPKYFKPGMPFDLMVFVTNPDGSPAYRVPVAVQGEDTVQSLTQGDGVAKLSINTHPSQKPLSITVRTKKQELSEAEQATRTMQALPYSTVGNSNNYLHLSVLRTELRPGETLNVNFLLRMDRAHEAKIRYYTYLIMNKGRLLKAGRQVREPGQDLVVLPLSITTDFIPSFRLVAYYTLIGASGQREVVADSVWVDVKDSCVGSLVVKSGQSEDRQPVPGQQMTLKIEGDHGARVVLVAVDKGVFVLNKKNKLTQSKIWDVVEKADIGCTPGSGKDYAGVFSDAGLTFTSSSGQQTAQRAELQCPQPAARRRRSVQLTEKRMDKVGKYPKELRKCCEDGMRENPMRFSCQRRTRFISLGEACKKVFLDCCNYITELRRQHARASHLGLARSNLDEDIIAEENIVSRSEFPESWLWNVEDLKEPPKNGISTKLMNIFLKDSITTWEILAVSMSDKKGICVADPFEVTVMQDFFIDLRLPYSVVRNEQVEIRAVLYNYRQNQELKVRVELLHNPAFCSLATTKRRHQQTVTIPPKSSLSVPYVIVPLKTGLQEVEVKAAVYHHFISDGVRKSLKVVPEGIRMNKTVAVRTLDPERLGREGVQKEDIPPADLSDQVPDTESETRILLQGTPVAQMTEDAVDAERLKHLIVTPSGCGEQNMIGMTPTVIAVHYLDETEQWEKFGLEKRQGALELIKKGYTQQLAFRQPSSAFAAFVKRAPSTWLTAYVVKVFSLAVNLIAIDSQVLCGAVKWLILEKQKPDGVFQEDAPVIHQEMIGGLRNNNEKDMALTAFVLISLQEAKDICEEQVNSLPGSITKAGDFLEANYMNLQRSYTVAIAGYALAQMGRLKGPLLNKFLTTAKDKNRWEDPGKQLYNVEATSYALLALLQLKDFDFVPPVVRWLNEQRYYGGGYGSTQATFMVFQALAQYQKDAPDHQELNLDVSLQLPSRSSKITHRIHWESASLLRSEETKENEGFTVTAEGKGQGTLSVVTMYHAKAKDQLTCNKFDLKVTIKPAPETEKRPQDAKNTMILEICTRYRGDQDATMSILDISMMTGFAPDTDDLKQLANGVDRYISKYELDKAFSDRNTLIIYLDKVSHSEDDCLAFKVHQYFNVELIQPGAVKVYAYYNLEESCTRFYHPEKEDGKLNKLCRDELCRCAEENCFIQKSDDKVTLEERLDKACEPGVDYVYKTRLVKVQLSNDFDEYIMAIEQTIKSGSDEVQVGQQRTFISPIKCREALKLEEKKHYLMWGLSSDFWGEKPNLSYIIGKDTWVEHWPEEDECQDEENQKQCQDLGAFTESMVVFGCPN

Binder	IC50[nM], inhibition of hemolysis [nM]
Ac-SEFCI[Trp(1-Me)]QDW[Sar]EHRC[Sar]E[AEEA][AEEA]K([γGlu-Gly-γGlu-C18 diacid])-NH2 (disulfide 4-14; SMILES CC[C@H](C)[C@@H]1NC(=O)[C@@H](NC(=O)[C@H](Cc2ccccc2)NC(=O)[C@H](CCC(=O)O)NC(=O)[C@H](CO)NC(C)=O)CSSC[C@@H](C(=O)N(C)CC(=O)N[C@@H](CCC(=O)O)C(=O)NCCOCCOCC(=O)NCCOCCOCC(=O)N[C@@H](CCCCNC(=O)CC[C@H](NC(=O)CNC(=O)CC[C@H](NC(=O)CCCCCCCCCCCCCCCCC(=O)O)C(=O)O)C(=O)O)C(N)=O)NC(=O)[C@H](CCCNC(=N)N)NC(=O)[C@H](Cc2c[nH]cn2)NC(=O)[C@H](CCC(=O)O)NC(=O)CN(C)C(=O)[C@H](Cc2c[nH]c3ccccc23)NC(=O)[C@H](CC(=O)O)NC(=O)[C@H](CCC(N)=O)NC(=O)[C@H](Cc2cn(C)c3ccccc23)NC1=O) [Compound 144]	< 100
Ac-ICIWQEWGEHRCT-NH2 (disulfide 2-12; SMILES CC[C@H](C)[C@H](NC(C)=O)C(=O)N[C@H]1CSSC[C@@H](C(=O)N[C@H](C(N)=O)[C@@H](C)O)NC(=O)[C@H](CCCNC(=N)N)NC(=O)[C@H](Cc2c[nH]cn2)NC(=O)[C@H](CCC(=O)O)NC(=O)CNC(=O)[C@H](Cc2c[nH]c3ccccc23)NC(=O)[C@H](CCC(=O)O)NC(=O)[C@H](CCC(N)=O)NC(=O)[C@H](Cc2c[nH]c3ccccc23)NC(=O)[C@H]([C@@H](C)CC)NC1=O) [Compound 16]	< 100
Ac-ICIWQDWGRHRCT-NH2 (disulfide 2-12; SMILES CC[C@H](C)[C@H](NC(C)=O)C(=O)N[C@H]1CSSC[C@@H](C(=O)N[C@H](C(N)=O)[C@@H](C)O)NC(=O)[C@H](CCCNC(=N)N)NC(=O)[C@H](Cc2c[nH]cn2)NC(=O)[C@H](CCCNC(=N)N)NC(=O)CNC(=O)[C@H](Cc2c[nH]c3ccccc23)NC(=O)[C@H](CC(=O)O)NC(=O)[C@H](CCC(N)=O)NC(=O)[C@H](Cc2c[nH]c3ccccc23)NC(=O)[C@H]([C@@H](C)CC)NC1=O) [Compound 18]	< 100
Ac-ICIWQDWGDHRCT-NH2 (disulfide 2-12; SMILES CC[C@H](C)[C@H](NC(C)=O)C(=O)N[C@H]1CSSC[C@@H](C(=O)N[C@H](C(N)=O)[C@@H](C)O)NC(=O)[C@H](CCCNC(=N)N)NC(=O)[C@H](Cc2c[nH]cn2)NC(=O)[C@H](CC(=O)O)NC(=O)CNC(=O)[C@H](Cc2c[nH]c3ccccc23)NC(=O)[C@H](CC(=O)O)NC(=O)[C@H](CCC(N)=O)NC(=O)[C@H](Cc2c[nH]c3ccccc23)NC(=O)[C@H]([C@@H](C)CC)NC1=O) [Compound 17]	< 100
SEFAIWQDWGEHRCTEGEXESK (not fully specified; N-acetyl; C-terminal amide; delta-cystathionine (Ctt2) thioether bridge A4-hCys14 (hCys written C); W6 is 1-Me-Trp; X19 is Peg3; K22 side chain bears [17-carboxy-heptadecanoyl][γGlu]) [Compound 148]	< 100
Ac-SEF[hCys]I[Trp(1-Me)]QDW[Sar]EHRA[Sar]EGE[AEEA]ESK([γGlu-Gly-γGlu-C18 diacid])-NH2 (thioether 4-14; SMILES CC[C@H](C)[C@@H]1NC(=O)[C@@H](NC(=O)[C@H](Cc2ccccc2)NC(=O)[C@H](CCC(=O)O)NC(=O)[C@H](CO)NC(C)=O)CCSC[C@@H](C(=O)N(C)CC(=O)N[C@@H](CCC(=O)O)C(=O)NCC(=O)N[C@@H](CCC(=O)O)C(=O)NCCOCCOCC(=O)N[C@@H](CCC(=O)O)C(=O)N[C@@H](CO)C(=O)N[C@@H](CCCCNC(=O)CC[C@H](NC(=O)CNC(=O)CC[C@H](NC(=O)CCCCCCCCCCCCCCCCC(=O)O)C(=O)O)C(=O)O)C(N)=O)NC(=O)[C@H](CCCNC(=N)N)NC(=O)[C@H](Cc2c[nH]cn2)NC(=O)[C@H](CCC(=O)O)NC(=O)CN(C)C(=O)[C@H](Cc2c[nH]c3ccccc23)NC(=O)[C@H](CC(=O)O)NC(=O)[C@H](CCC(N)=O)NC(=O)[C@H](Cc2cn(C)c3ccccc23)NC1=O) [Compound 166]	< 100
Ac-EFAI[Trp(1-Me)]QDWGEHR[hCys]EGEK([γGlu-Gly-γGlu-C18 diacid])-NH2 (thioether 3-13; SMILES CC[C@H](C)[C@@H]1NC(=O)[C@@H](NC(=O)[C@H](Cc2ccccc2)NC(=O)[C@H](CCC(=O)O)NC(C)=O)CSCC[C@@H](C(=O)N[C@@H](CCC(=O)O)C(=O)NCC(=O)N[C@@H](CCC(=O)O)C(=O)N[C@@H](CCCCNC(=O)CC[C@H](NC(=O)CNC(=O)CC[C@H](NC(=O)CCCCCCCCCCCCCCCCC(=O)O)C(=O)O)C(=O)O)C(N)=O)NC(=O)[C@H](CCCNC(=N)N)NC(=O)[C@H](Cc2c[nH]cn2)NC(=O)[C@H](CCC(=O)O)NC(=O)CNC(=O)[C@H](Cc2c[nH]c3ccccc23)NC(=O)[C@H](CC(=O)O)NC(=O)[C@H](CCC(N)=O)NC(=O)[C@H](Cc2cn(C)c3ccccc23)NC1=O) [Compound 161]	< 100
Ac-ICIWQKWGAHRCTGAES-NH2 (disulfide 2-12; SMILES CC[C@H](C)[C@H](NC(C)=O)C(=O)N[C@H]1CSSC[C@@H](C(=O)N[C@H](C(=O)NCC(=O)N[C@@H](C)C(=O)N[C@@H](CCC(=O)O)C(=O)N[C@@H](CO)C(N)=O)[C@@H](C)O)NC(=O)[C@H](CCCNC(=N)N)NC(=O)[C@H](Cc2c[nH]cn2)NC(=O)[C@H](C)NC(=O)CNC(=O)[C@H](Cc2c[nH]c3ccccc23)NC(=O)[C@H](CCCCN)NC(=O)[C@H](CCC(N)=O)NC(=O)[C@H](Cc2c[nH]c3ccccc23)NC(=O)[C@H]([C@@H](C)CC)NC1=O) [Compound 8]	< 500
Ac-ICIWQDWGAHRCE-NH2 (disulfide 2-12; SMILES CC[C@H](C)[C@H](NC(C)=O)C(=O)N[C@H]1CSSC[C@@H](C(=O)N[C@@H](CCC(=O)O)C(N)=O)NC(=O)[C@H](CCCNC(=N)N)NC(=O)[C@H](Cc2c[nH]cn2)NC(=O)[C@H](C)NC(=O)CNC(=O)[C@H](Cc2c[nH]c3ccccc23)NC(=O)[C@H](CC(=O)O)NC(=O)[C@H](CCC(N)=O)NC(=O)[C@H](Cc2c[nH]c3ccccc23)NC(=O)[C@H]([C@@H](C)CC)NC1=O) [Compound 12]	< 100
Ac-ESSAICIWQDWGEHRCTGAES-NH2 (disulfide 6-16; SMILES CC[C@H](C)[C@H](NC(=O)[C@H](C)NC(=O)[C@H](CO)NC(=O)[C@H](CO)NC(=O)[C@H](CCC(=O)O)NC(C)=O)C(=O)N[C@H]1CSSC[C@@H](C(=O)N[C@H](C(=O)NCC(=O)N[C@@H](C)C(=O)N[C@@H](CCC(=O)O)C(=O)N[C@@H](CO)C(N)=O)[C@@H](C)O)NC(=O)[C@H](CCCNC(=N)N)NC(=O)[C@H](Cc2c[nH]cn2)NC(=O)[C@H](CCC(=O)O)NC(=O)CNC(=O)[C@H](Cc2c[nH]c3ccccc23)NC(=O)[C@H](CC(=O)O)NC(=O)[C@H](CCC(N)=O)NC(=O)[C@H](Cc2c[nH]c3ccccc23)NC(=O)[C@H]([C@@H](C)CC)NC1=O) [Compound 14]	< 100
Ac-YCIWQDWGEHRCT-NH2 (disulfide 2-12; SMILES CC[C@H](C)[C@@H]1NC(=O)[C@@H](NC(=O)[C@H](Cc2ccc(O)cc2)NC(C)=O)CSSC[C@@H](C(=O)N[C@H](C(N)=O)[C@@H](C)O)NC(=O)[C@H](CCCNC(=N)N)NC(=O)[C@H](Cc2c[nH]cn2)NC(=O)[C@H](CCC(=O)O)NC(=O)CNC(=O)[C@H](Cc2c[nH]c3ccccc23)NC(=O)[C@H](CC(=O)O)NC(=O)[C@H](CCC(N)=O)NC(=O)[C@H](Cc2c[nH]c3ccccc23)NC1=O) [Compound 9]	< 100
Ac-ICIWQDWGEHRCE-NH2 (disulfide 2-12; SMILES CC[C@H](C)[C@H](NC(C)=O)C(=O)N[C@H]1CSSC[C@@H](C(=O)N[C@@H](CCC(=O)O)C(N)=O)NC(=O)[C@H](CCCNC(=N)N)NC(=O)[C@H](Cc2c[nH]cn2)NC(=O)[C@H](CCC(=O)O)NC(=O)CNC(=O)[C@H](Cc2c[nH]c3ccccc23)NC(=O)[C@H](CC(=O)O)NC(=O)[C@H](CCC(N)=O)NC(=O)[C@H](Cc2c[nH]c3ccccc23)NC(=O)[C@H]([C@@H](C)CC)NC1=O) [Compound 22]	< 100
Ac-SEFAI[Trp(1-Me)]QDWGEHR[hCys]TGAES-NH2 (thioether 4-14; SMILES CC[C@H](C)[C@@H]1NC(=O)[C@@H](NC(=O)[C@H](Cc2ccccc2)NC(=O)[C@H](CCC(=O)O)NC(=O)[C@H](CO)NC(C)=O)CSCC[C@@H](C(=O)N[C@H](C(=O)NCC(=O)N[C@@H](C)C(=O)N[C@@H](CCC(=O)O)C(=O)N[C@@H](CO)C(N)=O)[C@@H](C)O)NC(=O)[C@H](CCCNC(=N)N)NC(=O)[C@H](Cc2c[nH]cn2)NC(=O)[C@H](CCC(=O)O)NC(=O)CNC(=O)[C@H](Cc2c[nH]c3ccccc23)NC(=O)[C@H](CC(=O)O)NC(=O)[C@H](CCC(N)=O)NC(=O)[C@H](Cc2cn(C)c3ccccc23)NC1=O) [Compound 151]	< 100
Ac-ESSAYCIWQDWGEHRCT-NH2 (disulfide 6-16; SMILES CC[C@H](C)[C@@H]1NC(=O)[C@@H](NC(=O)[C@H](Cc2ccc(O)cc2)NC(=O)[C@H](C)NC(=O)[C@H](CO)NC(=O)[C@H](CO)NC(=O)[C@H](CCC(=O)O)NC(C)=O)CSSC[C@@H](C(=O)N[C@H](C(N)=O)[C@@H](C)O)NC(=O)[C@H](CCCNC(=N)N)NC(=O)[C@H](Cc2c[nH]cn2)NC(=O)[C@H](CCC(=O)O)NC(=O)CNC(=O)[C@H](Cc2c[nH]c3ccccc23)NC(=O)[C@H](CC(=O)O)NC(=O)[C@H](CCC(N)=O)NC(=O)[C@H](Cc2c[nH]c3ccccc23)NC1=O) [Compound 10]	< 100
